Test results reported in patent publication US20250066499A1 (SUNSHINE GUOJIAN PHARMACEUTICAL SHANGHAI, published 2025).

Assays:
CD73-ND-his = target: T1, CD73-ND-his (human, UniProt P21589 27-317); assay: ELISA, high plateau value (OD 450 nm)
T1 construct: Biotinylated and captured on streptavidin in the ELISA
T1 sequence: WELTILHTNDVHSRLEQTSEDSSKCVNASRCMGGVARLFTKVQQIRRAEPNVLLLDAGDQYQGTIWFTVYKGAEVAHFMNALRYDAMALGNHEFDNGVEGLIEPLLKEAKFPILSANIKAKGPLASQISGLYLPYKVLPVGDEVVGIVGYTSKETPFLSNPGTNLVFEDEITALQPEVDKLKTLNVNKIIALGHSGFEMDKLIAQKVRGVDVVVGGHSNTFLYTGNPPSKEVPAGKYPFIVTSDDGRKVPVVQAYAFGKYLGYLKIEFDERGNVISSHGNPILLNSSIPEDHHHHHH
Experimental: (§1) The ELISA plates were coated with SA protein diluted to 1.5 μg/mL in coating buffer (50 mM carbonate coating buffer, pH 9.6) and incubated overnight at 4° C. The supernatant was discarded, and the plates were washed three times with PBST. Then, 5% skimmed milk powder prepared with PBS was added for blocking and the plates were incubated for 2 h at 37° C. After washing the plates once with PBST, CD73-biotin protein (prepared by biotinylating CD73-His protein according to the EZ-Link NHS-Biotin Reagent instructions) was diluted to 0.5 μg/mL and added at 100 μL/well for incubation at room temperature for 1 h. The plates were washed three times with PBST, and the prepared murine-derived monoclonal antibodies against human CD73 were serially diluted with 1% BSA buffer prepared with PBST and added to the ELISA plates at 100 μl/well. The plates were incubated at 37° C. for 1 h. After washing the plates three times with PBST, HRP-labeled goat anti-mouse IgG secondary antibody was added and the plates were incubated for 30 min at 37° C. After washing the plates three times with PBST, the residual droplets were patted dry on absorbent paper as much as possible. Then, 100 μl of TMB color developing solution was added to each well, and the plates were incubated in the dark at room temperature for 5 min for color development. Subsequently, 50 μl of 2M H₂SO₄ stop solution was added to each well to terminate the substrate reaction. The OD values were read at 450 nm using a multimode microplate reader to analyze the binding ability of the tested antibodies to the target antigen human CD73-His.
(§2) Referring to the experimental method in Example 3, the affinity of 48A11-HuV33 for various mutant proteins of CD73-ND was determined. The SA protein was diluted to 1 μg/mL for coating the ELISA plates, and the biotinylated CD73 protein (CD73-biotin) was used at a concentration of 0.1 μg/mL.

CD73-ND-V186A = target: T2, CD73-ND-V186A (human, UniProt P21589 27-317); assay: ELISA, high plateau value (OD 450 nm)
T2 construct: Alanine mutant of CD73-ND
T2 sequence: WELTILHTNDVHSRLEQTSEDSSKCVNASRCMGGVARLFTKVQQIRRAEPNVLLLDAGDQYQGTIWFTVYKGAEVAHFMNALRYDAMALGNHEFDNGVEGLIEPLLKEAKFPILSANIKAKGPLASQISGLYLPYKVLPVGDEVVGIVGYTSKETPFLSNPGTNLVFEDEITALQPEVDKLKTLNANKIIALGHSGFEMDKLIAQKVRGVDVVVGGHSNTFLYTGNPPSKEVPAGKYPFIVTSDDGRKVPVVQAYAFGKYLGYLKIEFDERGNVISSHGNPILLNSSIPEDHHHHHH
Experimental: as §1, §2

CD73-ND-N187A = target: T3, CD73-ND-N187A (human, UniProt P21589 27-317); assay: ELISA, high plateau value (OD 450 nm)
T3 construct: Alanine mutant of CD73-ND
T3 sequence: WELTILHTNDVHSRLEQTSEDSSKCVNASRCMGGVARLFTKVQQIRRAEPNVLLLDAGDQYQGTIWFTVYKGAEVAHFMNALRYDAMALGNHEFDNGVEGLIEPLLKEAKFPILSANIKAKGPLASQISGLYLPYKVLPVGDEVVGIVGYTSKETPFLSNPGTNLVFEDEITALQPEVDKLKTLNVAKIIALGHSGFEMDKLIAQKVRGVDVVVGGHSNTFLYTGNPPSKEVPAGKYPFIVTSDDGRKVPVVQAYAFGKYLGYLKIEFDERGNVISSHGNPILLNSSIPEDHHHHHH
Experimental: as §1, §2

CD73-ND-V144A = target: T4, CD73-ND-V144A (human, UniProt P21589 27-317); assay: ELISA; decline multiple of Top against CD73-ND
T4 construct: Alanine mutant of CD73-ND
T4 sequence: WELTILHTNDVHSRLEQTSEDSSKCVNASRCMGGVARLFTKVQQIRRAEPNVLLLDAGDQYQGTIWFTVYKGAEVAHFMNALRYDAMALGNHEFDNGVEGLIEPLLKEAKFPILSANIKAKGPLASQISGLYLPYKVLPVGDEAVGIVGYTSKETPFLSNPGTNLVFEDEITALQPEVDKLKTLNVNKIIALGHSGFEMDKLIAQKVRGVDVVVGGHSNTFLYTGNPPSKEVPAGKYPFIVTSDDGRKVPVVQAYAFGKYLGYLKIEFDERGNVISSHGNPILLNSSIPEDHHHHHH
Experimental: as §1, §2

CD73-ND-K182A = target: T5, CD73-ND-K182A (human, UniProt P21589 27-317); assay: ELISA; decline multiple of Top against CD73-ND
T5 construct: Alanine mutant of CD73-ND
T5 sequence: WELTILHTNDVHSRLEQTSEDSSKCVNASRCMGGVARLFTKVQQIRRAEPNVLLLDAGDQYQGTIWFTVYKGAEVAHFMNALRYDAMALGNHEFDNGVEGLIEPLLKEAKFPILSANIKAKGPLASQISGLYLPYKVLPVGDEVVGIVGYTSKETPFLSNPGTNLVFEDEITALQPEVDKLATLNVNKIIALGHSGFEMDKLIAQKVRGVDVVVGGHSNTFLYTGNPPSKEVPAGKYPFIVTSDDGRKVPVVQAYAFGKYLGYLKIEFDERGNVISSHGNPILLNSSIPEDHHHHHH
Experimental: as §1, §2

CD73-ND-E143A = target: T6, CD73-ND-E143A (human, UniProt P21589 27-317); assay: ELISA; decline multiple of EC50 against CD73-ND
T6 construct: Alanine mutant of CD73-ND
T6 sequence: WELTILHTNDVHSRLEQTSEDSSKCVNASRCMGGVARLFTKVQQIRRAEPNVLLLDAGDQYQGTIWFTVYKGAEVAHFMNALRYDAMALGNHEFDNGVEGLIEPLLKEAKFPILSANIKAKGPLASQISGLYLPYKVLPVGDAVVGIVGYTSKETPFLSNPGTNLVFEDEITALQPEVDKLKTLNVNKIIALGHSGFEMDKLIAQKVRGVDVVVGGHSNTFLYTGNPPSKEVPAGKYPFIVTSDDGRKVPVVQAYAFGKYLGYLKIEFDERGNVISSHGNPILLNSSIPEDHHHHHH
Experimental: as §1, §2

B1: 48A11-HuV33 (antibody, human IgG4, V domains shown)
VH: QVQLVQSGAEVKKPGASVKVSCKASGYTFTSYWMHWVRQAPGQGLEWIGEINPSIGRTNYNEKFKSRVTLTRDTSTSTAYMELSSLRSEDTAVYYCARRVYGTMDYWGQGTLVTVSS
VL: DIQMTQSPSSLSASVGDRVTITCKASQDINSYLSWFQQKPGKSPKLLIYRANIWVDGVPSRFSGSGSGQDYTFTISSLQPEDIATYYCLQYDELYTFGQGTKVEIK
notes: Humanized
CD73-ND-his
  Top: 1.94
CD73-ND-V186A
  Top: 1.62
CD73-ND-N187A
  Top: 1.77
CD73-ND-V144A
  Ratio(Top): 1.2 fold
CD73-ND-K182A
  Ratio(Top): 1 fold
CD73-ND-E143A
  Ratio(EC50): 1.4 fold
